Drawing on US20190033318A1, this text covers ΔTm for two molecules.

Assay in all cases: thermal shift assay, 1 mM peptide
For assay [1], the target named is 2α PASB (HIF-2α PASB domain, 240-350) (UniProt Q99814).
For assay [2], the target named is Trx-2α (thioredoxin-tagged HIF-2α 1-360, bHLH-PASA-PASB) (UniProt Q99814).
Assay [3] deals with 1α PASB (HIF-1α PASB domain, 238-349) (UniProt Q16665).
The target of assay [4] is GST-1β (GST-tagged HIF-1β 1-474, isoform 2, Δ77-91) (UniProt P27540).

Chain of 2α PASB (HIF-2α PASB domain, 240-350) (Q99814 240-350): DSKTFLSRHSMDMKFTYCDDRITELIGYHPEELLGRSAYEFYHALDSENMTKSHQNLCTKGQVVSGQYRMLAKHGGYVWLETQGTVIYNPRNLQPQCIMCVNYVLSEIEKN
Chain of 1α PASB (HIF-1α PASB domain, 238-349) (Q16665 238-349): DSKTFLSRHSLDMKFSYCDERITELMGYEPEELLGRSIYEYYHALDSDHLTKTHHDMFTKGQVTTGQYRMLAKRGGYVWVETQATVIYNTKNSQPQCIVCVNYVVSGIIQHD
Chain of Trx-2α (thioredoxin-tagged HIF-2α 1-360, bHLH-PASA-PASB) (Q99814 1-360): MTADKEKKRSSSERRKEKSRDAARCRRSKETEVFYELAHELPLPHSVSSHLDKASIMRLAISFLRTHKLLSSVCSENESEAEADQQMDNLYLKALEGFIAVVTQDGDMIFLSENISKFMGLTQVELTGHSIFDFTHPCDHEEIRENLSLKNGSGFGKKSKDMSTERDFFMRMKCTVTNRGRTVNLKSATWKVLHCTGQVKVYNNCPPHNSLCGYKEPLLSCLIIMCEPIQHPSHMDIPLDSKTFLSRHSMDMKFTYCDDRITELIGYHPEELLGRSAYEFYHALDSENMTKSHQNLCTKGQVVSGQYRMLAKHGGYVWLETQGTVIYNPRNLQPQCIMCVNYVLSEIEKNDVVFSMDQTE

For SGWEMIQRR (cyclic peptide (first amino acid joined to the last)) [cyclo-… (SEQ ID NO 5)], the ΔTm in assay [1] was -2.5 ° C; in assay [2], -2 ° C; in assay [3], -0.5 ° C.

Consider CRVIIF (cyclic peptide (cyclo-, first amino acid joined to the last)) [cyclo-CRVIIF (SEQ ID NO 4)], for which, in assay [4], the ΔTm was -0.5 ° C.
